Measured values published in IntAct's records for PubMed 10633111.

B1: Protein virB8 (Agrobacterium tumefaciens (strain C58 / ATCC 33970)), P17798 (parent)
chain: MKGSEYALLVARETLAEHYKEVEAFQTARAKSARRLSKVIAAVATIAVLGNVAQAFTIATMVPLIRLVPVYLWIRPDGTVDSEVSVSRLPATQEEAVVNASLWEYVRLRESYDADTAQYAYDLVSNFSAPMVRQNYQQFFNYPNPTSPQVILGKHGRLEVEHIASNDVTPGVQQIRYKRTLIVDGKMPMASTWTATVRYEKVTSLPGRLRLTNPGGLVVTSYQTSEDTVSNAGHSEP
partner: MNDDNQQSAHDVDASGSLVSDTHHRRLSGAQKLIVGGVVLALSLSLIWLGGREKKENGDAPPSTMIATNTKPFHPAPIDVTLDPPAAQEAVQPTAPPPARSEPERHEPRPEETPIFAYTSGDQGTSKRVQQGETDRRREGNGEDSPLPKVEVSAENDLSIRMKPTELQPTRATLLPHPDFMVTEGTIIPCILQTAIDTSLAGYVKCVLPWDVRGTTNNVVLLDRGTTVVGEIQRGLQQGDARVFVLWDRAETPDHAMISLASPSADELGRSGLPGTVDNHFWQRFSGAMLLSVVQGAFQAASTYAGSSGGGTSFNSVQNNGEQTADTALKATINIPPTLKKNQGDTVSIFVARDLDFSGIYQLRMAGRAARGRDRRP
B2: Protein virB8 (Agrobacterium tumefaciens (strain C58 / ATCC 33970)), P17798 (parent)
chain: B1 chain
partner: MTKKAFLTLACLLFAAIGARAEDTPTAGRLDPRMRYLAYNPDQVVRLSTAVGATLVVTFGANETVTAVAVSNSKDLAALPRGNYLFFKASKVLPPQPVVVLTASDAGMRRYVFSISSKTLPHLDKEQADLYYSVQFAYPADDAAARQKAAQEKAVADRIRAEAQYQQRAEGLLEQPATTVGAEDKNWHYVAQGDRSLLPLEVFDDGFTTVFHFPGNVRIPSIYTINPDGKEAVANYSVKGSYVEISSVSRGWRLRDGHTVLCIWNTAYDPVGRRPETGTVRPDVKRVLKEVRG

Variants of: B1
Details: with virba_agrfc virB10, P17800

Variant	effect of a mutation on the interaction
S87L	decreasing interaction

Variants of: B2
Details: with virb9_agrfc virB9, P17799

Variant	effect of a mutation on the interaction
S87L	disrupting interaction
